Laboratory results as given in publication PMC9456297 (International Journal of Molecular Sciences, 2022).

B1: 238D2 nanobody (bacterially produced, c-myc- and His-tagged) (VHH)
VHH: EVQLVESGGGLVQTGGSLRLSCAASGFTFSSYAMSWVRQAPGKGLEWVSGIKSSGDSTRYAGSVKGRFTISRDNAKNMLYLQMYSLKPEDTAVYYCAKSRVSRTGLYTYDNRGQGTQVTVSS
notes: also called anti-CXCR4 Nb
B2: 3SM5 VH domain (bacterially produced, c-myc- and His-tagged) (domain or fragment)
VH: MEVQLVQSGAEVKKPGASVKVSCKASGYTFTDYHINWVRQAPGQGLEWMGWIHPNSGDTNYAQKFQGWVTMTRDTAISTAYMEVNGLKSDDTAVYYCARGGLEPRSVDYYYYGMDVWGQGTTVTVSS
notes: also called VH of CH65
B3: 4N1H VHH (bacterially produced, c-myc- and His-tagged) (VHH)
VHH: EVQLQESGGGLVQAGASLKLSCAASGRTFSSYAMGWFRQAPGKEREFVAAISRSGGDTKYADSVKGRFAISRDNDKNTVWLRMNSLKPEDTAVYYCAATTYASLSDTYIGEHIYDDWGQGTQVTVSS
notes: also called cAB-F11N

Columns and labels:
[1] = target: AviTag-238D2 (biotinylated, c-myc-tagged 238D2); assay: BLI
[2] = target: AviTag-3SM5 (biotinylated, c-myc-tagged 3SM5 VH); assay: BLI
[3] = target: T1, SNAP-tagged hCXCR4 labelled with Lumi4-Terbium (human, UniProt P61073 1-352, Lumi4-Terbium on the SNAP tag); assay: AlphaScreen or HTRF; settings: one partner purified
T1 construct: also called SNAP-CXCR4; Terbium-linked SNAP-tagged CXCR4
T1 sequence (P61073 whole entry): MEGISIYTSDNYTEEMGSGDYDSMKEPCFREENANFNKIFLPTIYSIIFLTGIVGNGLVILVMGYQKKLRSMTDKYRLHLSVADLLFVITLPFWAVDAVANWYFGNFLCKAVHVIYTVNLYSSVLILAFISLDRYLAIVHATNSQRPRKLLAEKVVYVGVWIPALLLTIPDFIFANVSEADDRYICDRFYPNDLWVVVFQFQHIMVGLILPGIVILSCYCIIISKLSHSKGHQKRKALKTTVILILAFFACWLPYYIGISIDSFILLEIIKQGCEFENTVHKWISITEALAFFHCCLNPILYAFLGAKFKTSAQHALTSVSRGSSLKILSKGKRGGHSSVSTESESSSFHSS

Molecule	Kd [1] [µM]	Kd [2] [µM]	IC50 [3] [µM]
Influenza A H1N1 (A/SOLOMON ISLANDS/3/2006): hemagglutinin H1 as a fusion protein with the neuraminidase N1	0.119	0.236	
B1			0.0584
B2			0.0691
B3			0.0398
